Assay: protease stability score; higher = more stable; yeast display proteolysis, trypsin and chymotrypsin;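 further: log10 excess protease needed over predicted unfolded state with 0 meaning unfolded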

Sequence	protease stability score
DKEEVEKIAREALEAAVKGDEDKLKTYLGPDVKYVLGDQEYQGQQVAELVMKLIKKDGARLQLETLKVEGNTVQAQYQFHVDGVTRKAHITMKVKGGRVDEWQVHIDDHAKEALKKG	1.28
DEEQMERVMQRVIKALQQGDQETVRKLGKPNGEVQAGDYRNKGPEAFVMAVDVAQKVGNKFEYKETRTKGGKMQTVVKVTVGGKTVEYEVEVVVEGGKAKEWYVRLDDDFVEQAKKS	0.514
DEENEKFARRYLEALKHNNPHEMQNMIDPNATLNVGDTRIDGDDQAKKFWSKKLQEISISIRKVSVEVSGNRIDIDAEYELEHNGKPDVNRRTVHLNVKNGKITDLKVRHDK	-0.063
DEKAMDKVRKVKEIEDEGDSDEFNKMFDPNARFNVGDKSVHGMETYVDQLSKELKRLKRSVRIKSMHAEGNRVDMTVKYEVDVNGRPYRAQVHIIYTFHNGHFSHVTYRLDPQSQREFQK	0.017
DDRDEAHKLHEDYDRVMQTGDDDRVREMVDPNAKLRIGDQDLRGREELAELMKRQRDRADHVRIELRSVKVDGNKITMKLNFHLDHNGRTENTDATYHYEKDNGQWELKHAKVS	-0.052
DEELLERIKRIMHSGNFTELANQMDKDAKIIIGDKVLHGREQVEEWYDHLEREVDHVEVHTMTIHNGHLTVHMRMTINGKTFKVIMVIEVHNGRVKRVEVRVTDPNVQKWLKSILQ	1.26
DKEHLKRMVETIIKILETGDPDKMKNLADENVRVEVGDKDVHGKDTLRKHIEEWRRQIDHLEVKSVRVKGNKASIHFVVRVNGTDKTVVVVFDIHNGKIKMVHYTDS	0.637
DHDAVRQARELYKVWQTGDPDKVRNMLDPNVRFRIGDKEIRGRESFAEELITQIKQSHVEVRHYSANANGNNVKARANVVIHVNGRPHEFSFIFRARVENGKFKQISVQVDDDLLRKLES	0.548
DSEKDKDWLRKLQSAVERNDPDSVMRLLDPNAEANYGDQTLHGREHIRKMFSELLKHADHVEVTDVRAHNGRLQLDVIMTINGRKSRYDLQFQFSNGRVKKVSVHSR	1.26
DESLAEQWMRDIKSNNEERFRRYVDPNVHADVGNFKVHGRHDLVEQLRKLLEQVDHLDYHSVSADGDDVTVDVVIDVNGNTVRYELIVRFHNGQAHSLQMHVTNPDQDRQLHEVVK	-0.013
DEEEVTKVVKKLRENDRDSQRDLFDKDVRVKIGDKNVHGREQAVTFWDRFLNSVDRYHVDSVEIDGDQIKIDARAVVNGRKVRYVVVYTVRNGRIKEASVHFTNEDEEKEFEKNVG	1.28
DEELVKRLKKLLEALESGDEEKVHHMFDPNVRFQVGDKRFHGRERYASTVKREKDEMRNEVTSYRLTATGDKAEMSFRNILDENGSPHDDIQVMHVHVQGDKIKRASIQETR	0.071
DEEEQKKRAKKQADAMRQGDTDELVKMLRDDVRVKVGDKEVHGREDLKKWAREIKKEVDHIQIRQVQVHNGRIDFHIVVNHNGKNKEVVLVVRVRNGQATDFKLTRK	0.051
DEERYKRLFEKVFKVVQNGNKDELKKLLAPNVEYNYVDKTYEGEEAAKAVVQLVKKVGAKAKQQKVEVKGDTATAHFQYENGDQRVETQAELHYEGDKVKKVQVKLTDEVKKVVHQG	0.356
DETREAQEIAKRIHKAVEENDEKQLEDQMPPDASVEVGDKTIHGRSRIARELWEEVETADHVNVSITSIRVDGDKVHVDMRYQFDDNGDDDVKHQKAQYVRNGDHFVLKNVHRK	-0.225
DEENVDRAERLLDALRSGNPNTVRELMDKHVKIQIGDKHLHGREQADKKAEDDSKEINEEVKSVDVKATGNNVVIDMDVSATVDGRPVTFHRVLVIRMHNGKIQEIEIRMSEDDIRNYKK	0.207
DERDQNRKAEEAAHALRDGDERRISEMFDKNAHATVGDQTYTGREEIMKWVHDIKKRYDHVTLHDVKVHNGRADLDMVFNHNGKEDRIRIDIQFQGDKIKHVSVRSK	1.69
DQEEAERVVKRAIKALENGNSKELKDLGKEGVEYEFGDKKIHGPDALVKQFRTLQKKGVEMEFKEHHVEGDEAHTKVRYRNGDKENEATITATVKGGRIDRVQVNVPETIRKIVKHG	-0.076
EDENTRKFVQYLKILKDGNEQELKKDMDPNAHIKVGDKTLSGMDKITDDVRRKLEEMTVDFTTVSAKAENGRLDVNMSLNNEVNGRPRSDDVTIEVRIHNGKFDHIIYHMDPNRLKEVER	-0.104
DDRDIERAKEMFKAIKTGDPDRLSELVDENARVKIGDKEWHGNTEWVEDLERKKKEMSVDLQIHKIEDRNGVAQIHMTRRMDHNGKPRSDKYVLFIRARNGRIVDVRAEERS	0.097
DREVLKEFLKQFHEGNFHEVARMADPNAEVEVGDKTVEGREHLITLHKHIHDKADHASIHRVEIHNGRINVELTVNFNGTNVVYRFTLEAENGKLKNINYRARDSDQKRILKRLWG	0.091
DRELRQNLHEFWKQQETGNPDELRKMVDPNARIVIGDKTYSGMDNAAQRMAESNQELSVDIKRLDLQASNGRVTIKLDAVKNHNGQPSRKTVTQTIRIHNGRIKHISMREDG	-0.448
DEEEQMHQANQNLRDAFRTNDPDTWRTLVDENARVRIGDKHVSGREEVKELMEDIAREADHLELRVQSMTVRNGELHVHFTLRADVNGQKREIQVVVVLVVRNGRARISRVEQT	1.15
DHKQEATKNLKKFEDVMKTNDPEKAKNLADENVRVQVGDKTVHGKEKMVSTMLEEMRKVDHFSVHLQEVSFHGDKLNLSYEFVLNQNGKERKDVRVFHAANHNGRFLVEELHQG	-0.322
DEDADRVFEEFIRAKTRGDPDRLSQLVDPNVRMHVGDQELRGRDTVRRFLHEVLHHARNDIHIQSMEVDGDHVSVEFKATTEHNGQPRTDRMTASAKIDNGRIKSLQEHSKK	-0.297

Sequence	protease stability score
DERLEDKMRKFLEVLRTGDEKKLRDLADPNVRFDIGEKKYRGRDEAVREYKRMRDEIRFEIKIRSLEAQGNKVDVTFEMTYDHNGKPKHNVVKLVFEQHNGKLKQLKVKSDK	0.596
DDKKVHKAANRFVEMFRTGNPDDLHKQIDKDAHATVGDKTYRGRTHVVRQIIEMVERVDHVEVKSISVDGDHAKIDMVLRHDGQEERVDVVMRVHNGRFKSIEFQEQ	0.512
DEKALNHANKMLEAYETGNEKQVADQVDKDVRVEIGDKFYHGRENLRERMKKLMKEARFRITVKSVKVQGDQAKIDAEVTHTHNGQPRKRHMSMTVDVQGDKIKQVHVQYHG	0.523
DEEHAEELMKRWMEVVKKGDKDTVKELYKPNGTWRNVDEEHQGVEQVQKMMKKIQDVGVEFQVRKAKVEGDRVTVVYDVRAGDVEVTFTVQMDVDGGRVELVQVKVDEDAKKAVKTG	0.034
EERLQELAERWWKARRTGDPHKIRDLLDKDVRVEYGNKSIHGRENIAHEIVRQLKHLRLDEKVERIDRSNGHVRATLSVTVNINGQPYTYRFELRIRAHNGKVKKIELRMPEEVVRRLDT	1.73
DEELERQFHEFLKALETNDPHRMRQLVDPNARIRVGDKRYHGMEEYAKDVVKKMEEARVSIDIKSIEVQGNHFVVEHEITRDQNGKPKTHRQRMFFTVKNGKVKEMQIEDQK	0.596
DEEDDKEMEKAIRALLYGDPDKVKKLADPNVNIQYGDKEIQGREEVSKHVDNLRHESRMRVQTMDNDLSGDHAKFDVQYESNHNGKPDTRRVDINAKAHNGHVKHMQWNKDE	-0.25
DEHARDRATQMIEAIHNGDPDTLQELLDEDAHIQIGDKEIHGHDQASRELRRRREEQNVDVRVRDLKVTGERVKIDVEIRVSHNGQPTETKVTIDVEAHNGKIKDLRMRTSQ	0.15
DERDVKSVIDLVKTGDFDQMVRNADKDVKIRIGDKHVHGREQASEAMKKFTDQIDHYEVKSVNVNNGRVIVEAVFVVNGEKITVTVIVEAQNGRITHVEWRYRDEHDKKLLRKILG	1.47
DEHKLQQVFEKFLKAFNTGDRDLARKLMDPNVKLDVGDKTYHGREQAMRWMHQVRQKADHIQVQSMESSGNKATVDIVIEHNGKSTSEVIRLEVENGHFRHVRKDSP	0.091
DHRAFELAKNILEAIRTNDPDTVKHQLDKNATLRYGEFEVHGREDASRFVETLIRKMRVEFDIKDYHVHGDSAVMDADVKVERNGRPDTRKLNVNVNVHNGKMSHIVFELRG	0.693
DEELNHQVHSFIKNVRQGNPKEAVKQADPNVRVQVGNKVINGRENMEKWYREMKREMRIVIKVDRIRAHNGRAEATYKVEYDVNGKPYTNTNSMHVEAHNGRIVSIYEDFDETHLREVQS	-0.367
DEEDVDRAARKFAEGNPDDVLKLADPNAELHVGDQTVHGKEDLERVMELDKRRIDHIHVNSMSVQGDNVKVLFKVVVNGRNIEFTLTANAHNGSIQFVMLNFTDERDEDKRRKALS	0.28
DEDAQRQVEELLKAEHEGDPKKFQELADPNVNAIYGDKRVHGRETLADQLAERVREMRVHYDSIDLRVRGNKVNVHINAKFKYNGVPIEISMTVVFVFHNGRLQRREVSIPEEVQTELTR	0.129
DQKDAKRATEILKNLQEGDWSEVVRQADPNAEIKVGDKVYNGMEHYAEHMHRKVEHSRIRIEVETVKDHNGVIHIKFHIEYKVNGHPRSNTQNINFYLNNGKVRSIDVQVPEEDLEKEHK	0.252
DDEHFDHLRKVLKTGDFERLNQLMDPNASADIGDKRYHGRESLEEMFRKLHTQIDHIEFKSMDLQGNKLKYTLVMTFNGREVTVTVVVEVQNGHIKRISIQARNESDREKLKHALD	1.46
DEEFEQNAKEWLTAIKENDPDQVRDLVDEDVRFNVGNKKVHGRERWKHLVETENKELRVEYESIDVKVNGDKAEFNATVTVEVNGKPAHFHVNMKMQAHNGRIKHVSQNMSHEDQEKFRK	-0.118
EDEEAEKLSEIQRTGDEERIARNADPNVRVNVGDKRVHGREHLVSIAKRLSKNVDSLEIKHVEIQGERMVVRFVMQVNGKHIHAEMEIQMSNGRITSRNQRYTSEDVEQNWRDAVD	0.255
DEEQRRMVQELFKALQHGDPDKVEELVDPNAQLHYGDKTVTGREEMHRWIEHLLDKIRIHFQRVSVRSRNGRAIAHATVEVVFNGKPDTVTFDLEANVHNGKFRRIVLRFPEEAQKKLKR	1.48
DDDRRRQAEEILKIFETGDPQKLRSQFDPNARMHYGDKTIHGMEHAAESMERWQNEMRIELKSYSFRKQGDKVQIDAHFVVHHNGKPDTVKIHIRMELDGDKVREVSVEHTQ	1.2
DEEKNREVKRFLDVMQKGDEDKLRRNVDPNVRFHIGDKTVQGHESFVEQLKTEKQHLRLRIDIKSVRATGNDIEVTAKVEYEHNGQPQHKELQIDVKMHNGRVKTIRYTRRG	0.224
DEERLQKIIEKAFKVIQNGNKEEAQKLGKPNVEYHYLDKTLHGPKAVEHAVEHVKKVGAEVKQQEIEVHGGTAKAVFQYHVGDKTVQTTAEVTYEGDKMKKARVKISEEVKKMMHRG	-0.076
DEQDQARRIVRHLLSAIRNNDPHRFQNNVDENVTLQYGDKTYNGDEDVHKYIEQFKREQKNARLRLLRLRIDNGRIDVIVRLRADHNGKEIRQIIVFHLVVRNGQARVETAHEG	1.17
DEEDEQKIAKDFVRALERGDEDRVMELADPNVRIVIGDKRYEGREELKKLVRTFKKRADHAEVHSIDIRNGTVIVDYVIHHNGRNSQQYLYVSFNNGRIKSMRVQDG	2.07
DEHHAAKRLMDNLLQAMRTGDTDTLKKLADPNVRIDVGDKTYHGREQFLQWMKELVKHVDSVHVDIKRFTVDGNNATIDAEARRDVNGNDHSEKVSVVAEVSGDKMHLKEIQYR	1.04

From the NTF2 design screens of Basanta et al. (2020)
